In the supplement of paper PMC7125110:
± gives the standard error. For some of these results: This sample holds only a part of the variants without activity.

B1: glmS ribozyme (parent)
chain: AUAAAAGCGCCAGAACUACAGAAAUGUAGUUGACGAGGAGGAGGUUUAUCGAAUUUUCGGCGGAUGCCUCCAAA

Legend:
Details in all cases: with glucosamine-6-phosphate
glucosamine-6-phosphate [1] = variants of: B1; assay: kcat; higher = faster cleavage; RNA array
Summary of the method: (§1)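 E. coli RNA polymerase transcribed barcoded ribozyme variants in situ on sequenced MiSeq chips, which were tracked via a hybridised Cy3 probe at 37 °C. Tiles were imaged over ~14 h after glucosamine-6-phosphate (40 μM to 10 mM) in HEPES/KCl/Mg(OAc)2 buffer was flowed in. Normalised per-tile medians were fit to one- or two-exponential decays for kobs, and kcat and KM came from weighted Michaelis–Menten fits.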

glucosamine-6-phosphate [2] = variants of: B1; assay: KM; higher = weaker cofactor use; RNA array
Summary of the method: as §1

glucosamine-6-phosphate [3] = variants of: B1; assay: self-cleavage kobs at 40 uM GlcN6P; higher = faster cleavage; RNA array
Summary of the method: as §1

glucosamine-6-phosphate [4] = variants of: B1; assay: self-cleavage kobs at 160 uM GlcN6P; higher = faster cleavage; RNA array
Summary of the method: as §1

glucosamine-6-phosphate [5] = variants of: B1; assay: self-cleavage kobs at 640 uM GlcN6P; higher = faster cleavage; RNA array
Summary of the method: as §1

glucosamine-6-phosphate [6] = variants of: B1; assay: self-cleavage kobs at 2500 uM GlcN6P; higher = faster cleavage; RNA array
Summary of the method: as §1

glucosamine-6-phosphate [7] = variants of: B1; assay: self-cleavage kobs at 10000 uM GlcN6P; higher = faster cleavage; RNA array
Summary of the method: as §1

Variant | kcat (glucosamine-6-phosphate [1]) [s⁻¹] | KM (glucosamine-6-phosphate [2]) [µM] | self-cleavage kobs at 40 uM GlcN6P (glucosamine-6-phosphate [3]) [s⁻¹] | self-cleavage kobs at 160 uM GlcN6P (glucosamine-6-phosphate [4]) [s⁻¹] | self-cleavage kobs at 640 uM GlcN6P (glucosamine-6-phosphate [5]) [s⁻¹] | self-cleavage kobs at 2500 uM GlcN6P (glucosamine-6-phosphate [6]) [s⁻¹] | self-cleavage kobs at 10000 uM GlcN6P (glucosamine-6-phosphate [7]) [s⁻¹]
U49G A53G A64G C67A | 0.000753 ± 0.0002 | 2220 ± 890 | 3.28e-05 ± 1.1e-05 | 5.27e-05 ± 1.4e-05 | 0.00016 ± 2.3e-05 | 0.000369 ± 7.9e-05 | 0.000669 ± 0.00013
C50U C68U | 2.09e-05 ± 3.8e-06 | – | – | – | – | 3e-05 ± 1.2e-05 | –
U47C U65G | 0.00435 ± 0.0005 | 3840 ± 610 | 4.89e-05 ± 1.1e-05 | – | 0.000565 ± 0.00011 | 0.00189 ± 0.00047 | 0.00312 ± 0.0006
U47C U65A | 0.00113 ± 0.00024 | 930 ± 300 | 6.54e-05 ± 1.7e-05 | 0.000154 ± 2.2e-05 | 0.000443 ± 9.4e-05 | 0.00121 ± 0.00023 | 0.00092 ± 0.00017
A48G C61U | 3e-05 ± 9.3e-06 | – | < 1e-05 | – | – | – | –
U47C U54G | 0.00375 ± 0.00045 | 1210 ± 200 | 0.000121 ± 1.7e-05 | – | 0.0013 ± 0.00028 | 0.00193 ± 0.00076 | 0.00359 ± 0.00065
A48C U56C | 5.47e-05 ± 1.8e-06 | 357 ± 160 | – | – | < 1e-05 | 4.83e-05 ± 1.6e-05 | 5.27e-05 ± 1.2e-05
C50A A52C | < 1e-05 | 2730 ± 690 | < 1e-05 | < 1e-05 | < 1e-05 | – | –
G51U C67U | < 1e-05 | – | – | – | – | – | < 1e-05
G51U G60C | 1.97e-05 ± 5.9e-06 | – | – | – | – | – | –
A48G C71A | 2.26e-05 ± 4.7e-06 | – | – | – | – | 2.93e-05 ± 1.3e-05 | –
A48G C71U | 8.1e-05 ± 1.3e-05 | – | – | – | 4.86e-05 ± 8.2e-06 | 0.000101 ± 1.1e-05 | 7.03e-05 ± 6.3e-06
G51U U55G | < 1e-05 | 76.4 ± 18 | – | – | – | – | < 1e-05
U47G U49A | 1.31e-05 ± 3.3e-06 | – | – | – | – | – | –
A48G C68U | 0.000161 ± 4.8e-05 | – | – | < 1e-05 | – | – | 4.18e-05 ± 8.3e-06
C50A C70U | 3.03e-05 ± 6.5e-06 | – | – | – | 2.82e-05 ± 9.4e-06 | 3.95e-05 ± 6.5e-06 | 1.9e-05 ± 7e-06
U47A U69G | 7.34e-05 ± 1.1e-05 | – | – | – | 7.68e-05 ± 1.1e-05 | 8.85e-05 ± 1.1e-05 | 5.37e-05 ± 1e-05
U47C C58A | 0.00036 ± 6e-05 | 4240 ± 1300 | – | – | 3.95e-05 ± 1.1e-05 | 0.00016 ± 2.7e-05 | 0.000244 ± 3.3e-05

Variant | kcat (glucosamine-6-phosphate [1]) [s⁻¹] | KM (glucosamine-6-phosphate [2]) [µM] | self-cleavage kobs at 40 uM GlcN6P (glucosamine-6-phosphate [3]) [s⁻¹] | self-cleavage kobs at 160 uM GlcN6P (glucosamine-6-phosphate [4]) [s⁻¹] | self-cleavage kobs at 640 uM GlcN6P (glucosamine-6-phosphate [5]) [s⁻¹] | self-cleavage kobs at 2500 uM GlcN6P (glucosamine-6-phosphate [6]) [s⁻¹] | self-cleavage kobs at 10000 uM GlcN6P (glucosamine-6-phosphate [7]) [s⁻¹]
U47C C58U | 0.000109 ± 7.3e-06 | – | – | – | – | – | 4.92e-05 ± 8.1e-06
U47C A52U | 0.00034 ± 5.8e-05 | 3930 ± 1200 | – | – | 3.84e-05 ± 1.6e-05 | 0.000145 ± 2.3e-05 | 0.000231 ± 4.7e-05
U47C A52C | 4.02e-05 ± 1.2e-06 | 3020 ± 290 | – | < 1e-05 | < 1e-05 | – | –
A52G U54A | 0.00109 ± 0.00027 | 1560 ± 590 | – | 9.56e-05 ± 1.7e-05 | 0.000442 ± 7.6e-05 | 0.00057 ± 0.00011 | 0.00101 ± 0.0002
A52G U54G | 0.00117 ± 0.00021 | 3060 ± 840 | – | 6.71e-05 ± 1.6e-05 | 0.000183 ± 2.3e-05 | 0.000616 ± 8.2e-05 | 0.000855 ± 0.00012
A52G G60U | < 1e-05 | – | – | < 1e-05 | < 1e-05 | – | –
A48G U54C | 0.000123 ± 1.5e-05 | 1310 ± 500 | – | – | 3.59e-05 ± 1.1e-05 | 0.000101 ± 1.8e-05 | 0.000104 ± 1.3e-05
C50U C67U | 2.42e-05 ± 5.8e-06 | – | – | – | – | 3.69e-05 ± 1.4e-05 | –
U49G C70U | 0.001 ± 4.7e-05 | 1860 ± 160 | 2.78e-05 ± 1.2e-05 | 7.37e-05 ± 1.3e-05 | 0.000263 ± 3e-05 | 0.00059 ± 7.5e-05 | 0.000837 ± 7.5e-05
U49G C67U | 0.000381 ± 5.6e-05 | 2520 ± 770 | – | – | 7.24e-05 ± 1.9e-05 | 0.000257 ± 6.4e-05 | 0.000292 ± 4.6e-05
A48G U65G | 8.76e-05 ± 3.5e-05 | – | < 1e-05 | < 1e-05 | – | – | 3.81e-05 ± 1.3e-05
A48G U65A | < 1e-05 | – | – | < 1e-05 | – | – | –
A52G U56A | 0.00139 ± 0.00027 | 4470 ± 1300 | – | 6.31e-05 ± 1.3e-05 | 0.000166 ± 2.9e-05 | 0.000441 ± 7.1e-05 | 0.00102 ± 0.00014
A52C C70U | 5.27e-05 ± 9.4e-06 | – | – | – | – | 5.72e-05 ± 1e-05 | 4.63e-05 ± 7.5e-06
U47C C67U | 0.000295 ± 6.9e-05 | – | – | 6.7e-05 ± 2.4e-05 | 0.000131 ± 3.2e-05 | 0.000177 ± 3.5e-05 | 0.000358 ± 6e-05
U49G G66U | 6.16e-05 ± 2.8e-07 | 5640 ± 59 | – | – | – | – | 3.94e-05 ± 1.3e-05
U49G G66A | 0.000689 ± 0.00024 | 6210 ± 3000 | – | – | 5.55e-05 ± 1.3e-05 | 0.00024 ± 3.6e-05 | 0.000375 ± 9.3e-05
